This passage reports Peptide exchange results from patent publication US20170002055A1, “Novel peptides and combination of peptides for use in immunotherapy against ovarian cancer and other cancers” (immatics biotechnologies GmbH, priority 2015, published 2017).

The experiment concerns the target HLA-A*02:01 (Homo sapiens, UniProt P04439, D140Y/D185E/D98H/E176V/E277Q/G131W/G231S/I119V/I121R/I166T/I218V/L300P/L318F/N151K/N90K/P208A/P217A/Q86G/Q94H/R138H/R169H/T345S). Briefly: MHC binding assay (UV-ligand exchange, β2m ELISA, peptide exchange yield). To be noted: MHC class I binding score; binding to HLA-A*02:01 ranged by peptide exchange yield (UV-ligand exchange, β2m ELISA). The essentials: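 Binding is expressed as peptide exchange yield: stabilized MHC complexes were quantified by β2m ELISA, with a 450 nm TMB read-out on streptavidin-coated plates. Complexes came from UV-ligand exchange, where UV irradiation cleaves a photolabile peptide so the candidate peptide can load.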
Background: In an ELISA, binding on a coated surface is turned into a signal by an enzyme label.
With “491 (GLNDRSDAV; listed as Homo sapiens) [compound 491]”, the Peptide exchange entry is listed as ““++” (≧20% = ++)”.
Then “492 (SLFDGFADGLGV; listed as Homo sapiens) [compound 492]”, with ““+++” (≧50 = +++)”; and “493 (GLLGEKTQDLIGV; listed as Homo sapiens) [compound 493]”, with ““+++” (≧50 = +++)”.
Then “494 (ALQPEPIKV; listed as Homo sapiens) [compound 494]”, with ““++” (≧20% = ++)”; and “495 (FIFSEKPVFV; listed as Homo sapiens) [compound 495]”, with ““+++” (≧50 = +++)”.
On to “496 (FLVEKQPPQV; listed as Homo sapiens) [compound 496]”, for which the Peptide exchange entry is given as ““+++” (≧50 = +++)”.
For “497 (GLLEKLTAI; listed as Homo sapiens) [compound 497]” the value was ““+++” (≧50 = +++)”; for “498 (KLWTGGLDNTV; listed as Homo sapiens) [compound 498]”, ““+++” (≧50 = +++)”.
For “500 (SLMEDQVLQL; listed as Homo sapiens) [compound 500]” the value was ““+++” (≧50 = +++)”; for “501 (LLDPNVKSIFV; listed as Homo sapiens) [compound 501]”, ““+++” (≧50 = +++)”.
For “502 (RLLAQVPGL; listed as Homo sapiens) [compound 502]” the value was ““+++” (≧50 = +++)”; for “503 (SLNHFTHSV; listed as Homo sapiens) [compound 503]”, ““+++” (≧50 = +++)”.
As for “504 (GLSDGNPSL; listed as Homo sapiens) [compound 504]”, the Peptide exchange result is ““++” (≧20% = ++)”.
For “505 (SLAPGDVVRQV; listed as Homo sapiens) [compound 505]” the value was ““++” (≧20% = ++)”; for “506 (KLLGKVETA; listed as Homo sapiens) [compound 506]”, ““+++” (≧50 = +++)”.
“507 (KLIDDQDISISL; listed as Homo sapiens) [compound 507]”: the Peptide exchange entry is ““+++” (≧50 = +++)”.
In the case of “508 (ILAQEQLVVGV; listed as Homo sapiens) [compound 508]”, the Peptide exchange result is ““+++” (≧50 = +++)”.
For “509 (FLFDTKPLIV; listed as Homo sapiens) [compound 509]” the value was ““+++” (≧50 = +++)”; for “510 (KLYSVVSQL; listed as Homo sapiens) [compound 510]”, ““++” (≧20% = ++)”.
For “512 (SLSEIVPCL; listed as Homo sapiens) [compound 512]” the value was ““+++” (≧50 = +++)”; for “513 (SLWPSPEQL; listed as Homo sapiens) [compound 513]”, ““++” (≧20% = ++)”; for “514 (ILVDWLVQV; listed as Homo sapiens) [compound 514]”, ““+++” (≧50 = +++)”.
For “515 (LLQELVLFL; listed as Homo sapiens) [compound 515]” the value was ““+++” (≧50 = +++)”; for “516 (AVGPASILKEV; listed as Homo sapiens) [compound 516]”, ““++” (≧20% = ++)”.
As for “517 (LLMPIPEGLTL; listed as Homo sapiens) [compound 517]”, the Peptide exchange entry is ““+++” (≧50 = +++)”.
With “519 (GLLHLTLLL; listed as Homo sapiens) [compound 519]”, the Peptide exchange entry was ““+++” (≧50 = +++)”.
For “520 (LAVHPSGVAL; listed as Homo sapiens) [compound 520]” the value was ““+” (≧10% = +)”; for “521 (MLLTKLPTI; listed as Homo sapiens) [compound 521]”, ““+++” (≧50 = +++)”.
Then “522 (TLWYRSPEV; listed as Homo sapiens) [compound 522]”, with ““++” (≧20% = ++)”.
For “523 (YQIPRTFTL; listed as Homo sapiens) [compound 523]” the value was ““++” (≧20% = ++)”; for “524 (ALIENLTHQI; listed as Homo sapiens) [compound 524]”, ““++” (≧20% = ++)”; for “525 (VLLEAGEGLVTI; listed as Homo sapiens) [compound 525]”, ““+++” (≧50 = +++)”.
Turning to “526 (RLAEVGQYEQV; listed as Homo sapiens) [compound 526]”, the Peptide exchange entry is ““++” (≧20% = ++)”.
As to “527 (FLLEPGNLEV; listed as Homo sapiens) [compound 527]”, the Peptide exchange result was ““++++” (≧75% = ++++)”.
As to “528 (SVAEGRALMSV; listed as Homo sapiens) [compound 528]”, the Peptide exchange result was ““+++” (≧50 = +++)”.
For the substance “529 (LLADELITV; listed as Homo sapiens) [compound 529]”, the Peptide exchange entry is listed as ““+++” (≧50 = +++)”.
For “530 (VMYADIGGMDI; listed as Homo sapiens) [compound 530]” the value was ““+++” (≧50 = +++)”.
For “531 (YTLPIASSIRL; listed as Homo sapiens) [compound 531]” the value was ““+++” (≧50 = +++)”.
Then “537 (TLAPGEVLRSV; listed as Homo sapiens) [compound 537]”, with ““+++” (≧50 = +++)”; and “538 (LLLAHIIAL; listed as Homo sapiens) [compound 538]”, with ““++” (≧20% = ++)”; and “539 (ALFDAQAQV; listed as Homo sapiens) [compound 539]”, with ““+++” (≧50 = +++)”.
On to “541 (SMLEPVPEL; listed as Homo sapiens) [compound 541]”, for which the Peptide exchange entry is on record as ““+++” (≧50 = +++)”.
For “542 (RVWDISTVSSV; listed as Homo sapiens) [compound 542]” the value was ““+++” (≧50 = +++)”; for “543 (GLLPTPITQQASL; listed as Homo sapiens) [compound 543]”, ““+++” (≧50 = +++)”.
As to “544 (LLWDVPAPSL; listed as Homo sapiens) [compound 544]”, the Peptide exchange result is ““+++” (≧50 = +++)”.
Then “545 (LLADLLHNV; listed as Homo sapiens) [compound 545]”, with ““+++” (≧50 = +++)”.
Then “546 (VMIAGKVAVV; listed as Homo sapiens) [compound 546]”, with ““+++” (≧50 = +++)”; and “547 (TLDITPHTV; listed as Homo sapiens) [compound 547]”, with ““+++” (≧50 = +++)”; and “548 (ALWENPESGEL; listed as Homo sapiens) [compound 548]”, with ““++” (≧20% = ++)”.
For “549 (AMLENASDIKL; listed as Homo sapiens) [compound 549]” the value was ““+++” (≧50 = +++)”; for “550 (FLYDEIEAEVNL; listed as Homo sapiens) [compound 550]”, ““+++” (≧50 = +++)”; for “551 (KLYESLLPFA; listed as Homo sapiens) [compound 551]”, ““+++” (≧50 = +++)”.
With “552 (GLLDLPFRVGV; listed as Homo sapiens) [compound 552]”, the Peptide exchange entry was ““++++” (≧75% = ++++)”.
